Several values for one entry are separate records, joined by “and”; a condition that tells them apart may be missing. Identical values can stand only once.
Experiments:
[1] = In vitro release of AZD4320 from conjugate in rat plasma with 5% HEPES, 37 °C (Fig S8); format: in vitro ADME; details: Rat Plasma 37 °C
Method: AZD4320 loading was quantified by 1H NMR spectroscopy. […]
conjugated AZD4320 peak areas. […]
AZD4320 conjugated dendrimer in plasma
Supplementary Figure 8. Comparison and release rate in plasma and buffer. Cumulative in vitro release of AZD4320 measured over time from AZD4320-dendrimer conjugate SPL8977) in phosphate buffered saline (purple circles, n=3) and rat plasma (green squares, n=2) and fit to first order model at 37 °C (n=2) […]

[2] = Body weight and tolerability in RS4;11 xenograft mice; format: in vivo, C.B-17 SCID mouse; details: for Percentage Body Weight Change post Dosing: single animals
Method: Female C.B.−17 SCID mice were purchased from Charles River Laboratories. Mice were 5–8 weeks old at the time of tumour implantation. All xenograft studies were conducted at our Association for the Assessment and Accreditation of Laboratory Animal Care accredited facility in Waltham, MA in accordance with ethical regulations described in the guidelines established by the internal Institutional Animal Care and Use Committee. The dendrimer conjugates were formulated in citrate/phosphate buffer pH 5.0, diluted 1:10 with 5% glucose containing 1% w/v Kolliphor HS15, and AZD4320 was formulated in 30% HP-β-CD and dosed as a weekly intravenous (IV) administration at a volume of 5 ml/kg at the indicated doses. Five million RS4;11, five million SUDHL-4 or five million OCI-LY-10 cells were injected subcutaneously in the right flank of mice in a volume of 0.1 ml. Tumour volumes (measured by caliper), animal body weight, and tumor condition were recorded twice weekly for the duration of the study. The tumour volume was calculated (taking length to be the longest diameter across the tumour and width to be the corresponding perpendicular diameter) using the formula: length (mm) x width (mm)^2/0.52. For efficacy studies, mice were randomized based on tumour volumes using stratified sampling and enrolled into control and treatment groups. Tumour growth inhibition from the start of treatment was quantified by measuring the difference in tumour volume between control and treated groups. Survival analysis was evaluated using Mantel-Cox test. Tumours were also taken for bioanalysis. […]
Supplementary Figure 13. Percent total body weight change in mouse RS4;11 xenograft model (n=6). Percent change in body weight of mice measured twice weekly after start of treatment with various doses of AZD0466. […]

platelets = assay: Platelet count in dogs; format: in vivo; details: dog, weekly ascending doses

AZD4320-MIDA-PEG2100 [AZD0466]
Cummulative Release % ([1]; 1.06 h, Replicate 1): 2.56%
Cummulative Release % ([1]; 1.24 h, Replicate 2): 3.28%
Cummulative Release % ([1]; 5.87 h, Replicate 1): 9.61%
Cummulative Release % ([1]; 6.04 h, Replicate 2): 11.99%
Cummulative Release % ([1]; 10.67 h, Replicate 1): 18.75%
Cummulative Release % ([1]; 10.85 h, Replicate 2): 23.05%
Cummulative Release % ([1]; 15.47 h, Replicate 1): 27.34%
Cummulative Release % ([1]; 15.65 h, Replicate 2): 32.24%
Cummulative Release % ([1]; 20.27 h, Replicate 1): 39.17%
Cummulative Release % ([1]; 20.45 h, Replicate 2): 41.44%
Percentage Body Weight Change post Dosing ([2]; 10 mg/kg (3mg/kg AZD4320), day 41 post implant): 0%
Percentage Body Weight Change post Dosing ([2]; 10 mg/kg (3mg/kg AZD4320), day 44 post implant): -1.896% and 0% and -3.365% and -4.5045% and -0.9756% and 0.4739%
Percentage Body Weight Change post Dosing ([2]; 10 mg/kg (3mg/kg AZD4320), day 48 post implant): 2.37% and 2.899% and -4.327% and 0% (2×) and -0.9479%
Percentage Body Weight Change post Dosing ([2]; 10 mg/kg (3mg/kg AZD4320), day 51 post implant): -2.8436% and -2.415% and -3.365% and -4.054% and -0.9756% and -3.318%
Percentage Body Weight Change post Dosing ([2]; 10 mg/kg (3mg/kg AZD4320), day 55 post implant): 1.4218% and 2.415% and -1.923% and 0.9009% and 1.951% and 0.4739%
Percentage Body Weight Change post Dosing ([2]; 10 mg/kg (3mg/kg AZD4320), day 58 post implant): -0.9479% and -0.4831% and -2.885% and 0% and 2.927% and 0.4739%
Percentage Body Weight Change post Dosing ([2]; 10 mg/kg (3mg/kg AZD4320), day 63 post implant): 5.6872% and 4.831% and -0.9615% and 3.6036% and 7.317% and 2.8436%
Percentage Body Weight Change post Dosing ([2]; 10 mg/kg (3mg/kg AZD4320), day 66 post implant): 4.2654% and 2.415% and -4.327% and 0.4505% and 3.415% and -1.4218%
Percentage Body Weight Change post Dosing ([2]; 10 mg/kg (3mg/kg AZD4320), day 70 post implant): 2.8436% and 1.449% and -1.923% and 3.153% and 5.366% and 0.9479%
Percentage Body Weight Change post Dosing ([2]; 10 mg/kg (3mg/kg AZD4320), day 73 post implant): 3.318% and 7.246% and -1.442% and 1.8018% and 6.829% and 0%
Percentage Body Weight Change post Dosing ([2]; 10 mg/kg (3mg/kg AZD4320), day 77 post implant): 3.791% and 4.348% and -2.404% and 2.7027% and 5.854% and 0%
Percentage Body Weight Change post Dosing ([2]; 10 mg/kg (3mg/kg AZD4320), day 80 post implant): 7.109% and 6.763% and 2.404% and 9.268% and 2.8436%
Percentage Body Weight Change post Dosing ([2]; 10 mg/kg (3mg/kg AZD4320), day 83 post implant): 6.635% and 1.932% and 1.923% and 8.78% and 1.4218%
Percentage Body Weight Change post Dosing ([2]; 34 mg/kg (10mg/kg AZD4320), day 41 post implant): 0%
Percentage Body Weight Change post Dosing ([2]; 34 mg/kg (10mg/kg AZD4320), day 44 post implant): -0.9346% and -3.922% and -3.6036% and -0.5155% and -2.427% and -2.913%
Percentage Body Weight Change post Dosing ([2]; 34 mg/kg (10mg/kg AZD4320), day 48 post implant): -2.336% and -1.471% and -2.252% and -1.546% and 0% and -1.456%
Percentage Body Weight Change post Dosing ([2]; 34 mg/kg (10mg/kg AZD4320), day 51 post implant): -2.804% and -6.373% and -5.405% and -1.031% and -4.369% and -1.942%
Percentage Body Weight Change post Dosing ([2]; 34 mg/kg (10mg/kg AZD4320), day 55 post implant): -1.869% and -0.4902% and -2.252% and 1.031% and -1.942% and -0.9709%
Percentage Body Weight Change post Dosing ([2]; 34 mg/kg (10mg/kg AZD4320), day 58 post implant): -1.402% and -3.431% and -3.153% and 1.546% and -2.913% and -0.9709%
Percentage Body Weight Change post Dosing ([2]; 34 mg/kg (10mg/kg AZD4320), day 63 post implant): 2.336% and -2.451% and 0% and 5.361% and 1.942% and 6.311%
Percentage Body Weight Change post Dosing ([2]; 34 mg/kg (10mg/kg AZD4320), day 66 post implant): -2.336% and -4.412% and 0% and 1.031% and 1.456% and 6.796%
Percentage Body Weight Change post Dosing ([2]; 34 mg/kg (10mg/kg AZD4320), day 70 post implant): -0.9346% and -5.392% and 0.4505% and 2.062% and 2.913% and 2.427%
Percentage Body Weight Change post Dosing ([2]; 34 mg/kg (10mg/kg AZD4320), day 73 post implant): 2.336% and -3.431% and 2.252% and 1.546% and 3.883% and 3.398%
Percentage Body Weight Change post Dosing ([2]; 34 mg/kg (10mg/kg AZD4320), day 77 post implant): 3.271% and -3.922% and 1.351% and 3.093% and 2.913% and 2.427%
Percentage Body Weight Change post Dosing ([2]; 34 mg/kg (10mg/kg AZD4320), day 80 post implant): 4.6729% and -1.471% and 7.207% and 5.155% and 3.883% and 6.796%
Percentage Body Weight Change post Dosing ([2]; 34 mg/kg (10mg/kg AZD4320), day 83 post implant): 4.206% and -1.961% and 7.658% and 4.639% and 4.854% and 9.709%
Percentage Body Weight Change post Dosing ([2]; 103 mg/kg (30mg/kg AZD4320), day 41 post implant): 0%
Percentage Body Weight Change post Dosing ([2]; 103 mg/kg (30mg/kg AZD4320), day 44 post implant): -2.415% and -9.211% and -6.161% and -5.804% and 0% and -2%
Percentage Body Weight Change post Dosing ([2]; 103 mg/kg (30mg/kg AZD4320), day 48 post implant): -0.9662% and -3.509% and -6.161% and -4.464% and -1.415% and -2.5%
Percentage Body Weight Change post Dosing ([2]; 103 mg/kg (30mg/kg AZD4320), day 51 post implant): -1.449% and -4.386% and -7.109% and -5.357% and -2.83% and -4%
Percentage Body Weight Change post Dosing ([2]; 103 mg/kg (30mg/kg AZD4320), day 55 post implant): 0.4831% and -0.4386% and -5.213% and -3.125% and 0% and -3.5%
Percentage Body Weight Change post Dosing ([2]; 103 mg/kg (30mg/kg AZD4320), day 58 post implant): -0.9662% and -1.754% and -5.213% and -4.464% and -0.9434% and -5.5%
Percentage Body Weight Change post Dosing ([2]; 103 mg/kg (30mg/kg AZD4320), day 63 post implant): 0.4831% and 1.842% and -3.791% and -2.232% and -1.887% and -2%
Percentage Body Weight Change post Dosing ([2]; 103 mg/kg (30mg/kg AZD4320), day 66 post implant): -1.932% and -0.4386% and -4.2654% and -2.679% and -0.9434% and -2.5%
Percentage Body Weight Change post Dosing ([2]; 103 mg/kg (30mg/kg AZD4320), day 70 post implant): -1.449% and 0.4386% and -3.318% and -1.786% and -0.9434% and -8%
Percentage Body Weight Change post Dosing ([2]; 103 mg/kg (30mg/kg AZD4320), day 73 post implant): 0.4831% and 1.316% and -1.896% and -4.018% and -2.83% and -4%
Percentage Body Weight Change post Dosing ([2]; 103 mg/kg (30mg/kg AZD4320), day 77 post implant): 0.4831% and 1.316% and 0% (2×) and -2.679% and -4%
Percentage Body Weight Change post Dosing ([2]; 103 mg/kg (30mg/kg AZD4320), day 80 post implant): 4.348% and 1.754% and 2.8436% and -1.786% and 0.4717% and -3%
Percentage Body Weight Change post Dosing ([2]; 103 mg/kg (30mg/kg AZD4320), day 83 post implant): 2.415% and 3.509% and 4.2654% and -2.232% and 0.4717% and -2%
tolerability in xenograft mice ([2]; RS4;11 xenograft, all doses): well tolerated
effect on platelet count (platelets): reversible and dose-dependent decrease in platelet count
